{"source": "patent US20210388087A1", "about": "(Chugai, published 2021)", "binders": {"B1": {"name": "dBBDu183H P61W/dBBDu072L (antibody, name in Kabat numbering, V domains shown)", "VH": "QVQLVESGGGLVQPGRSLRLSCAASGFTFSNAWMHWVRQAPGKGLEWVAQIKDKGNAYAAYYAWSVKGRFTISRDDSKNSIYLQMNSLKTEDTAVYYCHYVHYASASTVLPAFGVDAWGQGTTVTVSS", "VL": "DIVMTQSPLSLPVTPGEPASISCQASQELVHMNRNTYLHWYQQKPGQAPRLLIYKVSNRFPGVPDRFSGSGSGTDFTLKISRVEAEDVGVYYCAQGTSVPFTFGQGTKLEIK"}, "B2": {"name": "dBBDu183H S100aF/dBBDu072L (antibody, name in Kabat numbering, V domains shown)", "VH": "B1 VH with W64P, S107F", "VL": "B1 VL"}, "B3": {"name": "dBBDu183H S62V/dBBDu072L (antibody, name in Kabat numbering, V domains shown)", "VH": "B1 VH with W64P, S65V", "VL": "B1 VL"}, "B4": {"name": "dBBDu183H S99N/dBBDu072L (antibody, name in Kabat numbering, V domains shown)", "VH": "B1 VH with W64P, S105N", "VL": "B1 VL"}, "B5": {"name": "dBBDu183H P100eK/dBBDu072L (antibody, name in Kabat numbering, V domains shown)", "VH": "B1 VH with W64P, P111K", "VL": "B1 VL"}, "B6": {"name": "dBBDu183H S99K/dBBDu072L (antibody, name in Kabat numbering, V domains shown)", "VH": "B1 VH with W64P, S105K", "VL": "B1 VL"}, "B7": {"name": "dBBDu183H S99D/dBBDu072L (antibody, name in Kabat numbering, V domains shown)", "VH": "B1 VH with W64P, S105D", "VL": "B1 VL"}, "B8": {"name": "dBBDu183H S99T/dBBDu072L (antibody, name in Kabat numbering, V domains shown)", "VH": "B1 VH with W64P, S105T", "VL": "B1 VL"}, "B9": {"name": "dBBDu183H S99G/dBBDu072L (antibody, name in Kabat numbering, V domains shown)", "VH": "B1 VH with W64P, S105G", "VL": "B1 VL"}, "B10": {"name": "dBBDu183H S62D/dBBDu072L (antibody, name in Kabat numbering, V domains shown)", "VH": "B1 VH with W64P, S65D", "VL": "B1 VL"}, "B11": {"name": "dBBDu183H P100eR/dBBDu072L (antibody, name in Kabat numbering, V domains shown)", "VH": "B1 VH with W64P, P111R", "VL": "B1 VL"}, "B12": {"name": "dBBDu183H S100aE/dBBDu072L (antibody, name in Kabat numbering, V domains shown)", "VH": "B1 VH with W64P, S107E", "VL": "B1 VL"}, "B13": {"name": "dBBDu183H P100eE/dBBDu072L (antibody, name in Kabat numbering, V domains shown)", "VH": "B1 VH with W64P, P111E", "VL": "B1 VL"}, "B14": {"name": "dBBDu183H S62Y/dBBDu072L (antibody, name in Kabat numbering, V domains shown)", "VH": "B1 VH with W64P, S65Y", "VL": "B1 VL"}, "B15": {"name": "dBBDu183H P100eN/dBBDu072L (antibody, name in Kabat numbering, V domains shown)", "VH": "B1 VH with W64P, P111N", "VL": "B1 VL"}, "B16": {"name": "dBBDu183H S62R/dBBDu072L (antibody, name in Kabat numbering, V domains shown)", "VH": "B1 VH with W64P, S65R", "VL": "B1 VL"}, "B17": {"name": "dBBDu183H S99W/dBBDu072L (antibody, name in Kabat numbering, V domains shown)", "VH": "B1 VH with W64P, S105W", "VL": "B1 VL"}, "B18": {"name": "dBBDu183H P100eF/dBBDu072L (antibody, name in Kabat numbering, V domains shown)", "VH": "B1 VH with W64P, P111F", "VL": "B1 VL"}, "B19": {"name": "dBBDu183H P100eT/dBBDu072L (antibody, name in Kabat numbering, V domains shown)", "VH": "B1 VH with W64P, P111T", "VL": "B1 VL"}, "B20": {"name": "dBBDu183H S99F/dBBDu072L (antibody, name in Kabat numbering, V domains shown)", "VH": "B1 VH with W64P, S105F", "VL": "B1 VL"}, "B21": {"name": "dBBDu183H S100aD/dBBDu072L (antibody, name in Kabat numbering, V domains shown)", "VH": "B1 VH with W64P, S107D", "VL": "B1 VL"}, "B22": {"name": "dBBDu183H S62T/dBBDu072L (antibody, name in Kabat numbering, V domains shown)", "VH": "B1 VH with W64P, S65T", "VL": "B1 VL"}, "B23": {"name": "dBBDu183H P100eD/dBBDu072L (antibody, name in Kabat numbering, V domains shown)", "VH": "B1 VH with W64P, P111D", "VL": "B1 VL"}, "B24": {"name": "dBBDu183H P100eY/dBBDu072L (antibody, name in Kabat numbering, V domains shown)", "VH": "B1 VH with W64P, P111Y", "VL": "B1 VL"}, "B25": {"name": "dBBDu183H S99E/dBBDu072L (antibody, name in Kabat numbering, V domains shown)", "VH": "B1 VH with W64P, S105E", "VL": "B1 VL"}, "B26": {"name": "dBBDu183H P100eQ/dBBDu072L (antibody, name in Kabat numbering, V domains shown)", "VH": "B1 VH with W64P, P111Q", "VL": "B1 VL"}, "B27": {"name": "dBBDu183H S62F/dBBDu072L (antibody, name in Kabat numbering, V domains shown)", "VH": "B1 VH with W64P, S65F", "VL": "B1 VL"}, "B28": {"name": "dBBDu183H S99Y/dBBDu072L (antibody, name in Kabat numbering, V domains shown)", "VH": "B1 VH with W64P, S105Y", "VL": "B1 VL"}, "B29": {"name": "dBBDu183H S99H/dBBDu072L (antibody, name in Kabat numbering, V domains shown)", "VH": "B1 VH with W64P, S105H", "VL": "B1 VL"}, "B30": {"name": "dBBDu183H P61Y/dBBDu072L (antibody, name in Kabat numbering, V domains shown)", "VH": "B1 VH with W64Y", "VL": "B1 VL"}, "B31": {"name": "dBBDu183H S99Q/dBBDu072L (antibody, name in Kabat numbering, V domains shown)", "VH": "B1 VH with W64P, S105Q", "VL": "B1 VL"}, "B32": {"name": "dBBDu183H P100eH/dBBDu072L (antibody, name in Kabat numbering, V domains shown)", "VH": "B1 VH with W64P, P111H", "VL": "B1 VL"}, "B33": {"name": "dBBDu183H S62N/dBBDu072L (antibody, name in Kabat numbering, V domains shown)", "VH": "B1 VH with W64P, S65N", "VL": "B1 VL"}, "B34": {"name": "dBBDu183H P100eG/dBBDu072L (antibody, name in Kabat numbering, V domains shown)", "VH": "B1 VH with W64P, P111G", "VL": "B1 VL"}, "B35": {"name": "dBBDu183H P100eS/dBBDu072L (antibody, name in Kabat numbering, V domains shown)", "VH": "B1 VH with W64P, P111S", "VL": "B1 VL"}, "B36": {"name": "dBBDu183H S62E/dBBDu072L (antibody, name in Kabat numbering, V domains shown)", "VH": "B1 VH with W64P, S65E", "VL": "B1 VL"}, "B37": {"name": "dBBDu183H P100eV/dBBDu072L (antibody, name in Kabat numbering, V domains shown)", "VH": "B1 VH with W64P, P111V", "VL": "B1 VL"}, "B38": {"name": "dBBDu183H P100eW/dBBDu072L (antibody, name in Kabat numbering, V domains shown)", "VH": "B1 VH with W64P, P111W", "VL": "B1 VL"}, "B39": {"name": "dBBDu183H S62G/dBBDu072L (antibody, name in Kabat numbering, V domains shown)", "VH": "B1 VH with W64P, S65G", "VL": "B1 VL"}, "B40": {"name": "dBBDu183H S62K/dBBDu072L (antibody, name in Kabat numbering, V domains shown)", "VH": "B1 VH with W64P, S65K", "VL": "B1 VL"}, "B41": {"name": "dBBDu183H S62W/dBBDu072L (antibody, name in Kabat numbering, V domains shown)", "VH": "B1 VH with W64P, S65W", "VL": "B1 VL"}, "B42": {"name": "dBBDu183H S99V/dBBDu072L (antibody, name in Kabat numbering, V domains shown)", "VH": "B1 VH with W64P, S105V", "VL": "B1 VL"}, "B43": {"name": "dBBDu183H S99R/dBBDu072L (antibody, name in Kabat numbering, V domains shown)", "VH": "B1 VH with W64P, S105R", "VL": "B1 VL"}, "B44": {"name": "dBBDu183H S62H/dBBDu072L (antibody, name in Kabat numbering, V domains shown)", "VH": "B1 VH with W64P, S65H", "VL": "B1 VL"}, "B45": {"name": "dBBDu183H S62Q/dBBDu072L (antibody, name in Kabat numbering, V domains shown)", "VH": "B1 VH with W64P, S65Q", "VL": "B1 VL"}}, "note": "Positions count from the first letter of the chain named. In names and notes the source's numbering stands."}
{"target": "T1, Human CD3eg linker (human)", "T1 construct": "single-chain construct; also called recombinant human CD3", "T1 chain": "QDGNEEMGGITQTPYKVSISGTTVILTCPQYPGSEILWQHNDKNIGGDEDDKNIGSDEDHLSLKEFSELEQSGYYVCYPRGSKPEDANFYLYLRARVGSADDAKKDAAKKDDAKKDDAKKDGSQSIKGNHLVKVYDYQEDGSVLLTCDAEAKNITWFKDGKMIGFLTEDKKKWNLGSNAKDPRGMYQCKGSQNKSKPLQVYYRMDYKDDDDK", "test": "SPR, vs unmutated H183/L072", "units": {"fold change of affinity": "fold"}}
{"binder": "B1", "fold change of affinity": 1.8}
{"binder": "B2", "fold change of affinity": 1.6}
{"binder": "B3", "fold change of affinity": 1.4}
{"binder": "B4", "fold change of affinity": 0.6}
{"binder": "B5", "fold change of affinity": 2.1}
{"binder": "B6", "fold change of affinity": 1.8}
{"binder": "B7", "fold change of affinity": 0.3}
{"binder": "B8", "fold change of affinity": 0.9}
{"binder": "B9", "fold change of affinity": 1}
{"binder": "B10", "fold change of affinity": 1.2}
{"binder": "B11", "fold change of affinity": 2.2}
{"binder": "B12", "fold change of affinity": 0.6}
{"binder": "B13", "fold change of affinity": 1}
{"binder": "B14", "fold change of affinity": 1.5}
{"binder": "B15", "fold change of affinity": 1.3}
{"binder": "B16", "fold change of affinity": 1.5}
{"binder": "B17", "fold change of affinity": 0.9}
{"binder": "B18", "fold change of affinity": 1.9}
{"binder": "B19", "fold change of affinity": 1.4}
{"binder": "B20", "fold change of affinity": 1}
{"binder": "B21", "fold change of affinity": 0.6}
{"binder": "B22", "fold change of affinity": 1.3}
{"binder": "B23", "fold change of affinity": 0.7}
{"binder": "B24", "fold change of affinity": 2}
{"binder": "B25", "fold change of affinity": 0.3}
{"binder": "B26", "fold change of affinity": 1.5}
{"binder": "B27", "fold change of affinity": 1.9}
{"binder": "B28", "fold change of affinity": 0.8}
{"binder": "B29", "fold change of affinity": 0.7}
{"binder": "B30", "fold change of affinity": 1.9}
{"binder": "B31", "fold change of affinity": 1}
{"binder": "B32", "fold change of affinity": 1.5}
{"binder": "B33", "fold change of affinity": 1.4}
{"binder": "B34", "fold change of affinity": 1.6}
{"binder": "B35", "fold change of affinity": 1.2}
{"binder": "B36", "fold change of affinity": 1.2}
{"binder": "B37", "fold change of affinity": 1.5}
{"binder": "B38", "fold change of affinity": 1.7}
{"binder": "B39", "fold change of affinity": 1.4}
{"binder": "B40", "fold change of affinity": 1.4}
{"binder": "B41", "fold change of affinity": 2}
{"binder": "B42", "fold change of affinity": 0.8}
{"binder": "B43", "fold change of affinity": 2}
{"binder": "B44", "fold change of affinity": 1.3}
{"binder": "B45", "fold change of affinity": 1.3}
